Experiments:
[1] = test system: tumors from Prkci^fl/fl Prkcz^fl/fl Villin-cre (DKO) mice; test: scRNAseq and IHC of DKO mouse intestinal tumors treated with PVHA or Galunisertib; format: in vivo; settings: non-tumor area
[2] = test system: MTO-sgPrkci/sgPrkcz liver metastases; test: Liver metastasis model, intrasplenic injection of sgPrkci/Prkcz MTOs; format: in vivo, mouse; settings: 5 doses over 2.5 weeks
From the text: CRC predominantly metastasizes to the liver, which is the leading cause of death. Five-year overall survival for metastatic CRC patients is only 14.7%. Furthermore, patients with metastatic liver disease do worse than those without liver disease across different types of cancer and are totally refractory to ICB. Based on data that PEGPH20 remodels the tumor microenvironment and enables ICB in primary MSS CRC, the potential role of targeting HA in liver metastasis was investigated. To directly test therapeutic effects on liver metastatic disease, MTO-sgPrkci/sgPrkcz was inoculated in the portal circulation of wild-type C57BL/6J mice and mice were for two weeks and a half (5 doses) with a low clinically relevant dose of PEGPH20 ([…]) or in combination with anti-PDL1 or/and anti-CTLA4 (FIG. 22A).
Intrasplenic injection of sgPrkci/Prkcz MTOs in WT mice. Mice were treated twice a week with Veh or PEGPH20 0.0375 mg/kg and/or αPD-L1 (5 mg/kg) and/or aCTLA4 (100 ug/dose) for 2.5 weeks (n: sgPrkci/Prkcz MTOs Veh-treated=7, sgPrkciiPrkcz MTOs PEGPH20-treated=7, sgPrkci/Prkcz MTOs PEGPH20 and αPD-L1-treated=7, and sgPrkci/Prkcz MTOs PEGPH20 and aCTLA4-treated=6).

[3] = test system: MTO-sgPrkci/sgPrkcz tumors; test: Subcutaneous MTO-sgPrkci/sgPrkcz tumors in syngeneic C57BL/6J mice treated with PEGPH20; format: in vivo, mouse
Protocol: FIGS. 8F-8J illustrate subcutaneous injection of sgPrkci/Prkcz and sgC MTOs in WT mice. Mice were treated twice a week with Veh or PEGPH20 0.0375 mg/kg for 3 weeks (MTOs: sgC n=10, sgC PEGPH20-treated n=10, sgPrkci/Prkcz n=10, and sgPrkci/Prkcz PEGPH20-treated n=8). Experimental design (F); Immunohistochemistry (IHC) for HA, Masson's trichrome, and αSMA (G) staining quantification (H); tumor volume (I) and tumor weight (J). Scale bars, 100 μm.
For colonoscopy-guided orthotopic injection in the colon submucosa using mouse tumor organoids (MTOs), a 10 μl organoid suspension of equivalent to 40-50 MTOs admixed with 10% Matrigel (Corning) was directly injected into the colonic submucosa of 7 weeks old C57BL/6 mice. 4 weeks after implantation, tumors were collected and analyzed histologically. Orthotopic tumor sizes were measured by caliper after mice were sacrificed. For xenografts using MTOs, a 100 μl cell suspension of equivalent to 0.5×10^6 cells of sgPrkci/Prkcz or sgC MTOs admixed with 30% Matrigel (Corning) was directly injected subcutaneously into the right flank of 7 weeks old C57BL/6 mice. Tumors were allowed to grow for 14 days, and mice were randomly divided to receive vehicle, n=20, or PEGPH20 (0.0375 mg/kg, 2 days each week) via retro-orbital injection, n=18. Tumors were measured twice a week. Mice were euthanized three weeks after treatment and tumors were analyzed histologically. For the combination therapy of anti-PD-L1 (Clone B7-H1, Bioxcell) antibody and PEGPH20, mice were injected with a dose of 5 mg/kg (body mass) of anti-PD-L1 antibody in combination with PEGPH20 (n=15) twice a week for 4 weeks until they were sacrificed.
To address the potential role of HA stromal accumulation in the tumorigenesis of intestinal mesenchymal tumors in vivo, mouse tumor organoids (MTO) with mutations in Apc, Trp53, Kras, and Tgfbr2 (Tauriello et al., 2018) and with deletion of Prkci and Prkcz by CRISPR/Cas9 were characterized. MTO-sgPrkci/sgPrkcz recapitulated the observed phenotype in human organoids showing in vitro upregulation of Has1, Has2, and Has3 transcripts, increased expression of HA, and enrichment in EMT and TGFβ signaling signatures (FIGS. 8A-8E). […] Next, the impact of depleting HA on tumorigenesis was tested. To that end, MTO-sgPrkci/sgPrkcz or MTO-sgC were subcutaneously transplanted into syngeneic C57BL/6J mice and treated with a low dose of clinical-grade pegylated hyaluronidase (PEGPH20; 0.0375 mg/Kg), equivalent to a human dose evaluated in clinical trials, or with vehicle (FIG. 8F).

B1: PEGPH20: a PEGylated version of human recombinant PH20 hyaluronidase; clinical-grade pegylated hyaluronidase (Halozyme Therapeutics) (protein, UniProt P38567 36-490, looked up)
Hyaluronidase PH-20: LNFRAPPVIPNVPFLWAWNAPSEFCLGKFDEPLDMSLFSFIGSPRINATGQGVTIFYVDRLGYYPYIDSITGVTVNGGIPQKISLQDHLDKAKKDITFYMPVDNLGMAVIDWEEWRPTWARNWKPKDVYKNRSIELVQQQNVQLSLTEATEKAKQEFEKAGKDFLVETIKLGKLLRPNHLWGYYLFPDCYNHHYKKPGYNGSCFNVEIKRNDDLSWLWNESTALYPSIYLNTQQSPVAATLYVRNRVREAIRVSKIPDAKSPLPVFAYTRIVFTDQVLKFLSQDELVYTFGETVALGASGIVIWGTLSIMRSMKSCLLLDNYMETILNPYIINVTLAAKMCSQVLCQEQGVCIRKNWNSSDYLHLNPDNFAIQLEKGGKFTVRGKPTLEDLEQFSEKFYCSCYSTLSCKEKADVKDTDAVDVCIADGVCIDAFLKPPMETEEPQIFYNASPSTLS
modifications: PEGylated
With B1 the “Olfm4 (Stem cell marker) IHC” value [1] was “increase”, the “number of established liver tumors and volume of those tumors” value [2] was “reducing” and the “metastatic burden of MTO-sgPrkci/sgPrkcz” value ([2]; PEGPH20 0.0375 mg/kg, αPD-L1 5 mg/kg, aCTLA4 100 ug/dose) was “markedly decreased”. The “signatures related to invasion, tumor progression, and desmoplasia (EMT, myogenesis, angiogenesis, TGFβ signaling, stromal activation, CMS4 subtype)” value ([3]; GSEA of Quant-seq, treated versus Veh) was “decrease”, the “IFN and allograft rejection signatures” value ([3]; GSEA of RNAseq, allografts from MTO-sgPrkci/sgPrkcz) was “enrichment” and the “tumor volume and weight” value ([3]; PEGPH20 0.0375 mg/Kg twice a week, 3 weeks) was “sensitive”. For the same molecule, the “desmoplastic phenotype: expression of HA, collagen, and αSMA+” value ([3]; PEGPH20 0.0375 mg/Kg twice a week, 3 weeks, IHC) was “reverted”.
